Earlier results on one substance are cited in publication PMC3823252.

The target of this series is KpOmpA (Klebsiella pneumoniae) (UniProt P24017).
KpOmpA (Klebsiella pneumoniae), sequence (P24017 2-344): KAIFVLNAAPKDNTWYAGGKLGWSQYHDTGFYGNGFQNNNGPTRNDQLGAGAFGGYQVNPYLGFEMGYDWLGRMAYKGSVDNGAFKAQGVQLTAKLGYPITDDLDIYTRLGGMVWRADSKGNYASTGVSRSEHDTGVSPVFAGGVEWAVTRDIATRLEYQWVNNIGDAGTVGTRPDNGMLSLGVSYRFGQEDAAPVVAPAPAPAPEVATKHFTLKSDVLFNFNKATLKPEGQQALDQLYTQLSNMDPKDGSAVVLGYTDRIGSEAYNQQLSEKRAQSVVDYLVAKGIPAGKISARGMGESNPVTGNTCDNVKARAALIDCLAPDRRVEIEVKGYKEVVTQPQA

PTX3, sequence (P26022 18-381): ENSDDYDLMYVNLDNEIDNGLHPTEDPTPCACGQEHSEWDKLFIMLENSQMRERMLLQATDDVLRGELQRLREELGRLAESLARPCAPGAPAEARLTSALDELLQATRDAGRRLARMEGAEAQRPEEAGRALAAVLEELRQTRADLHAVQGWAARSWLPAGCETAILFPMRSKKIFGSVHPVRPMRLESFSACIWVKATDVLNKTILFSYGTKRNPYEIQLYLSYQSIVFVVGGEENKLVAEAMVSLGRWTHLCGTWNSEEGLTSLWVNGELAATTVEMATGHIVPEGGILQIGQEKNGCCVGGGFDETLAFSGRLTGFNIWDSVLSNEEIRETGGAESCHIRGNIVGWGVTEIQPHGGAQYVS

In general, Kd refers to the concentration at which binding is half-saturated. PTX3 (from UniProt P26022): the Kd was 50 nM.
